Experimental findings from US20230406921A1 (MABWELL SHANGHAI BIOSCIENCE, published 2023) are described below.

Test [1] has as its target T1, recombinant antigen of the extracellular region of CD47 (Sino Biological, Cat: 12283-H08H) (human, UniProt Q08722 19-139).
T1 construct: extracellular domain; also called recombinant CD47 extracellular region; CD47 recombinant protein
The test is described as follows: Fortebio BLI. On the technique in general: BLI is a label-free optical method that tracks binding on a fibre tip over time.

The next test deals with PD-L1 (human, UniProt Q9NZQ7 19-239, limits assumed). The test is described as follows: Fortebio BLI.
Sequence of PD-L1 (Q9NZQ7 19-239 limits assumed): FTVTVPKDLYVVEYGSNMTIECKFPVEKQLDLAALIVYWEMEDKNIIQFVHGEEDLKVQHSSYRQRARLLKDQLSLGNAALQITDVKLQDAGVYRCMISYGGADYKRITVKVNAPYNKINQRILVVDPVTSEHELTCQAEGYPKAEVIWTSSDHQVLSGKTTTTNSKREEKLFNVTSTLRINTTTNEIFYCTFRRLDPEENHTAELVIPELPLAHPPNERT
The target of test [2] is T2, CD47 on the surface of tumor cells (human, UniProt Q08722 19-323).
T2 construct: whole, on cells; Same protein as m4; also called CD47 antigen on the surface of U937 and CCRF cells; SKOV-3
Kind of test: FACS, SKOV-3 tumor cells (no PD-L1), antibody 100 nM. In general terms: Flow cytometry measures light scatter and fluorescence of single cells or particles in a stream.
Experimental: (§1) In the experiment of analyzing the binding to human red blood cells, the antibody was used at a concentration of 1000 nM; and in the experiment of analyzing the binding to tumor cells, the antibody was used at a concentration of 100 nM.

In test [3] the target is T3, CD47 on the surface of human red blood cells (human, UniProt Q08722 19-323).
T3 construct: whole, on cells; Same protein as m3, on red blood cells; also called hRBC; RBC
Kind of test: FACS, human red blood cells, antibody 1000 nM.
Experimental: as §1

Substitutions are numbered along the chain they refer to.

B1: anti-human CD47/PD-L1 bispecific antibody 2MW1531-m7 (bispecific antibody, human IgG4 S228P, kappa)
heavy 1: EVQLVQSGAEVKKPGASVKVSCKASGYKFTNYVMSWVRQAPGQRLEWMGYINPYNDAIKYNEKFTGRVTITRDTSASTAYMELSSLRSEDTAVYYCAREGDFYANYGRLGFAYWGQGTLVTVSSASTKGPSVFPLAPCSRSTSESTAALGCLVKDYFPEPVTVSWNSGALTSGVHTFPAVLQSSGLYSLSSVVTVPSSSLGTQTYTCNVDHKPSNTKVDKRVESKYGPPCPPCPAPEFLGGPSVFLFPPKPKDTLMISRTPEVTCVVVDVSQEDPEVQFNWYVDGVEVHNAKTKPREEQYNSTYRVVSVLTVLHQDWLNGKEYKCKVSNKGLPSSIEKTISKAKGQPREPQVYTLPPSQKEMTKNQVSLTCLVKGFYPSDIAVEWESNGQPENNYKTTPPVLDSDGSFFLYSKLTVDKSRWQEGNVFSCSVMHEALHNRYTQKSLSLSLGK
heavy 2: EVQLVQSGAEVKKPGATVKISCKVSGFNIKDIYMHWVQQAPGKGLEWMGRIDPANANTKYDPKFQDRVTITADTSTNTAYMELSSLRSEDTAVYYCASGQLGPLGFDYWGQGTTVTVSSASTKGPSVFPLAPCSRSTSESTAALGCLVKDYFPEPVTVSWNSGALTSGVHTFPAVLQSSGLYSLSSVVTVPSSSLGTQTYTCNVDHKPSNTKVDKRVESKYGPPCPPCPAPEFLGGPSVFLFPPKPKDTLMISRTPEVTCVVVDVSQEDPEVQFNWYVDGVEVHNAKTKPREEQYNSTYRVVSVLTVLHQDWLNGKEYKCKVSNKGLPSSIEKTISKAKGQPREPQVYTLPPSQEEMTKNQVSLTCLVKGFYPSDIAVEWESNGQPENNYKTTPPVLDSDGSFFLYSKLTVDKSRWQEGNVFSCSVMHEALHNHYTQESLSLSLGK
VL: DIQMTQSPSSLSASVGDRVTITCRASQDISNYLNWYQQKPGKAPKLLLYYTSRLHSGVPSRFSGSGSGTDYTLTISSLQPEDFATYFCQQGAGFPYTFGGGTKVEIKRTVAAPSVFIFPPSDEQLKSGTASVVCLLNNFYPREAKVQWKVDNALQSGNSQESVTEQDSKDSTYSLSSTLTLSKADYEKHKVYACEVTHQGLSSPVTKSFNRGEC
notes: Knobs-into-holes with a common light chain
For the molecule B1, in test [1], the equilibrium dissociation constant (Kd) came out at 0.0621 µM, the koff was found to be 0.00814 s⁻¹ and the kon worked out at 131000 M⁻¹ s⁻¹. For the same molecule, in the test with PD-L1, binding was characterised by a dissociation constant (Kd) of 0.000917 µM, the off-rate (koff) turned out to be 0.00021 s⁻¹ and the kon came to 230000 M⁻¹ s⁻¹. Further, the “Binding to tumor cells (MFI)” value in test [2] was determined as 28200 MFI.

B2: anti-human CD47/PD-L1 bispecific antibody 2MW1531-m4 (bispecific antibody)
heavy 1: B1 heavy 1
heavy 2: B1 heavy 2
VL: B1 VL with S30T, F94R
notes: as for B1
As to B2, in test [1], the Kd was 0.0265 µM, the koff stood at 0.00321 s⁻¹ and the on-rate (kon) worked out at 121000 M⁻¹ s⁻¹. In the test with PD-L1, this molecule returned a Kd of 0.00378 µM, a koff of 0.000707 s⁻¹ and a kon of 187000 M⁻¹ s⁻¹. Moreover, the “Binding to human red blood cells (MFI)” value in test [3] worked out at 903 MFI. For the same molecule, in test [2], the “Binding to tumor cells (MFI)” value was found to be 31100 MFI.

B3: anti-human CD47/PD-L1 bispecific antibody 2MW1531-m1 (bispecific antibody)
heavy 1: B1 heavy 1
heavy 2: B1 heavy 2
VL: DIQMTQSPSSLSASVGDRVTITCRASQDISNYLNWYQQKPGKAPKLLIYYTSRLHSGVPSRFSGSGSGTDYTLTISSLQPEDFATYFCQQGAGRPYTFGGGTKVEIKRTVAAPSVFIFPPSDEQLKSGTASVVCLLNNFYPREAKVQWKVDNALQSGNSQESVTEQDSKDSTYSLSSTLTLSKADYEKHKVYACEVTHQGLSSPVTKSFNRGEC
notes: as for B1
Turning to B3, in test [1], the Kd stood at 0.0225 µM, the koff came to 0.00213 s⁻¹ and the kon was determined as 94600 M⁻¹ s⁻¹. In the test with PD-L1, this molecule gave a Kd of 0.00159 µM, a koff of 0.000387 s⁻¹ and an on-rate (kon) of 243000 M⁻¹ s⁻¹. For the same molecule, the “Binding to human red blood cells (MFI)” value in test [3] was 888 MFI. The “Binding to tumor cells (MFI)” value in test [2] amounted to 33300 MFI.

B4: anti-human CD47/PD-L1 bispecific antibody 2MW1531-m2 (bispecific antibody)
heavy 1: B1 heavy 1
heavy 2: B1 heavy 2
VL: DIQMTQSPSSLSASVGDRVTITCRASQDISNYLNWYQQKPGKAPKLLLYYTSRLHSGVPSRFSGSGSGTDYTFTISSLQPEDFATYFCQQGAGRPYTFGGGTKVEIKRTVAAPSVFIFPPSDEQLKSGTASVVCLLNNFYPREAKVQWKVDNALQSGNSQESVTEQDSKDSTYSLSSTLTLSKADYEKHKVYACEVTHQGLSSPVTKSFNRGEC
notes: as for B1
Regarding B4, in test [1], the Kd was 0.081 µM, the koff turned out to be 0.00678 s⁻¹ and the kon is 83700 M⁻¹ s⁻¹. In the test with PD-L1, this molecule came in with a Kd of 0.00326 µM, a koff of 0.000696 s⁻¹ and a kon of 213000 M⁻¹ s⁻¹. Moreover, the “Binding to human red blood cells (MFI)” value in test [3] is 799 MFI. For the same molecule, the “Binding to tumor cells (MFI)” value in test [2] is 29900 MFI.

The term Kd denotes the equilibrium constant for the complex coming apart. A word on the koff: it is the first-order rate constant of dissociation. As a reminder, the kon is a measure of how fast the partners come together.
